Blank lines part the entries; values can stand above or below the compound they belong to.
Legend:
[1] = target: T1, TbERK8 (extracellular-signal regulated kinase 8 homolog, Tb927.10.5140) (Trypanosoma brucei, UniProt Q38B88); test: […]-ATP kinase assay with MBP substrate, eight-point dose response; format: biochemical
T1 sequence (Q38B88 1-442): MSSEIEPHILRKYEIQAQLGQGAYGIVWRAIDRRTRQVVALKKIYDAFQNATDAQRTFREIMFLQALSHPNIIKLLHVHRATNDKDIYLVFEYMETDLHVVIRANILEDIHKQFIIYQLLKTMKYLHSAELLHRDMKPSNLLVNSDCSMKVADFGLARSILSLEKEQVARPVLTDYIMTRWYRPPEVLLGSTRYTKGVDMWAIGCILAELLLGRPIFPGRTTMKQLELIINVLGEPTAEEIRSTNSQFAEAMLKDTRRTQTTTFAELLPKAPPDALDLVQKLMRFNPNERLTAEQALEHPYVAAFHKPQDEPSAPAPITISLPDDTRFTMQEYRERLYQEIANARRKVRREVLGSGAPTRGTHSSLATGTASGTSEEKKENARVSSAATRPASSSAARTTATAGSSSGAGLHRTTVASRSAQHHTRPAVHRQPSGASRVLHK

[2] = target: T1, TbERK8 (extracellular-signal regulated kinase 8 homolog, Tb927.10.5140); test: HTRF kinase assay; format: biochemical
[3] = target: GST-TbERK8-PIP-box fusion protein (GSTtbE8-PIP) (Trypanosoma brucei); test: pull-down
[4] = target: GST-bound canonical PIP-box from T. brucei aurora kinase 1 (GSTtbAUK1-PIP) (Trypanosoma brucei); test: pull-down
[5] = target: GST-bound canonical PIP-box from T. brucei paraflagellar complex TbPFC19 (GSTtbPFC-PIP) (Trypanosoma brucei); test: pull-down

IC50 [1]: 1.4 µM
Compound: Cn1cc(C2=C(c3cn(CCCSC(=N)N)c4ccccc34)C(=O)NC2=O)c2ccccc21 [Ro318220]

IC50 [2]: ~1600 µM
Compound: COc1ccccc1C(=O)c1cnc(NC2CCN(C(=O)Nc3ccccc3)CC2)nc1N [SCYX5070]

Compound: hemagglutinin-tagged TbPCNA (wt-TbPCNAHA) (natural protein)
fold pulled down against GST-Ctrl beads [3]: 5 fold

Compound: recombinant wt-TbPCNA6H (natural protein)
fold pulled down against the TbERK8 PIP-box motif [4]: 5 fold | fold pulled down against the TbERK8 PIP-box motif [5]: 3 fold

From publication PMC5053586 (Cell Cycle, 2016)
